Measurements taken from US20120027679A1 (CANON, published 2012).
Blank lines part the entries; values can stand above or below the binder they belong to. Where no end group is shown, it is not given here. Side-chain parts run from the residue outwards. maleimide = maleimide group (reactive functional group for coupling a ligand); EO 2 kDa = ethylene oxide linker of molecular weight 2000

Legend:
[1] = biological target: T1, HER2 (epidermal growth factor receptor 2) on N87 cells (UniProt P04626 23-1255, limits assumed); experiment: saturation binding to N87 cells, Scatchard plot, apparent Kd
T1 construct: whole, on cells; N87 cells are used as HER2-positive cells; also called HER2-positive cells (N87); HER2-expressing cells
Procedure: (§1) Each particle was evaluated for its binding capability to HER2-expressing cells. On the day before evaluation, HER2-positive cells (N87 cells) were seeded over a 24-well plate (5×10⁵ cells/well). Next day, after medium removal, 200 μL of a growth medium was placed therein, and the particle sample was then added to each well. The plate was left standing in a CO₂ incubator at 37° C. for 4 hours. Then, the medium containing the particle was removed. The wells were fully washed twice with 1 mL of PBS. After removal of PBS, 1% Triton-X100/PBS solution was added at a concentration of 150 μL/well for cell lysis. The cells were incubated at room temperature for 2 hours or longer. Subsequently, concentrated hydrochloric acid (12 N) was added at a concentration of 150 μL/well, and the cells were incubated at room temperature for 2 hours or longer. The amount of iron in this acid lysate of the sample (6 N HCl solution, 300 μL) was measured to determine the concentration of the particle bound to the cell. A Scatchard plot was prepared from the saturation binding curve of the particle for N87, and an apparent equilibrium dissociation constant (Kd) of the particle for the cell was determined.
(§2) According to Example 8, a Scatchard plot was prepared from the saturation binding curve of each particle for N87 cells, and an apparent equilibrium dissociation constant (Kd) of the particle for the cell was determined.

[2] = biological target: T1, HER2 (epidermal growth factor receptor …); experiment: saturation binding to N87 cells, Scatchard plot, apparent Kd; HBP2 particle
Procedure: as §1, with “Subsequently, concentrated hydrochloric acid (12 N) was added at a concentration of 150 μL/well, and the cells were incubated at room temperature for 2 hours or longer.” left out
as §2

[3] = biological target: T1, HER2 (epidermal growth factor receptor …); experiment: saturation binding to N87 cells, Scatchard plot, apparent Kd; HBP3 particle
Procedure: as §1, with “Subsequently, concentrated hydrochloric acid (12 N) was added at a concentration of 150 μL/well, and the cells were incubated at room temperature for 2 hours or longer.” left out
as §2

[4] = biological target: T1, HER2 (epidermal growth factor receptor …); experiment: saturation binding to N87 cells (cell-bound iron measured), Scatchard plot, apparent Kd
Procedure: as §1

[5] = biological target: T2, Recombinant Human ErbB2/Fc Chimera (R&D Systems, Inc.) (human, UniProt P04626 23-652); experiment: SPR (Biacore X), ErbB2/Fc on CM-5 chip, Scatchard plot of Req, apparent Kd of the particle
T2 construct: Bought; Amine-coupled to a CM-5 chip, about 1000 to 2000 RU; also called HER2; antigen; Fc part of the bought chimera not given

[6] = biological target: T1, HER2 (epidermal growth factor receptor …); experiment: saturation binding to N87 cells, Scatchard plot, apparent Kd; HBP1 particle
Procedure: as §1, with “Subsequently, concentrated hydrochloric acid (12 N) was added at a concentration of 150 μL/well, and the cells were incubated at room temperature for 2 hours or longer.” left out
as §2

Kd [1]: 80 pM
B1: HBP3-EO2k-NP-200: HER2-binding peptide-immobilized 200-nm particle with ethylene oxide linker of molecular weight 2000 (peptide)
peptide: MARSGLGGKGSC([maleimide-EO 2 kDa-iron oxide nanoparticle 200 nm])
modifications: not fully specified

Kd [1]: 90 pM
B2: HBP2-EO2k-NP-200: HER2-binding peptide-immobilized 200-nm particle with ethylene oxide linker of molecular weight 2000 (peptide)
peptide: MARSGLGGKGSC([maleimide-EO 2 kDa-iron oxide nanoparticle 200 nm])
modifications: not fully specified

Kd [2]: 430 pM
B3: HBP2-EO-NP-200: HER2-binding peptide-immobilized 200-nm particle containing an iron oxide particle (peptide)
peptide: MARSGLGGKGSC([maleimide-PEG 300-iron oxide nanoparticle 200 nm])
modifications: not fully specified

Kd [1]: 110 pM
B4: HBP4-EO2k-NP-200: HER2-binding peptide-immobilized 200-nm particle with ethylene oxide linker of molecular weight 2000 (peptide)
peptide: MARSGLGGKGSC([maleimide-EO 2 kDa-iron oxide nanoparticle 200 nm])
modifications: not fully specified

Kd [3]: 490 pM
B5: HBP3-EO-NP-200: HER2-binding peptide-immobilized 200-nm particle containing an iron oxide particle (peptide)
peptide: MARSGLGGKGSC([maleimide-PEG 300-iron oxide nanoparticle 200 nm])
modifications: not fully specified

Kd [4]: 78000 pM | Kd [5]: 36700 pM
B6: HBP-EO-NP-20: HER2-binding peptide-immobilized 20-nm particle containing an iron oxide particle (peptide)
peptide: MARSGLGGKGSC([maleimide-PEG 300-iron oxide nanoparticle 20 nm])
modifications: not fully specified

Kd [1]: 70 pM
B7: HBP1-EO2k-NP-200: HER2-binding peptide-immobilized 200-nm particle with ethylene oxide linker of molecular weight 2000 (peptide)
peptide: MARSGLGGKGSC([maleimide-EO 2 kDa-iron oxide nanoparticle 200 nm])
modifications: not fully specified

Kd [6]: 670 pM
B8: HBP1-EO-NP-200: HER2-binding peptide-immobilized 200-nm particle containing an iron oxide particle (peptide)
peptide: MARSGLGGKGSC([maleimide-PEG 300-iron oxide nanoparticle 200 nm])
modifications: not fully specified
